Entries after “also recorded” stand apart in the source; their conditions may differ. Ends that are not written are not given here. * marks the point of attachment. Biotin = O=C1N[C@H]2[C@H](CS[C@H]2CCCCC(=O)*)N1
Key:
APC/C = experiment: Biotinylated peptide pull-down of purified APC/C, Western blot; type: binding, Saccharomyces cerevisiae; details: 20 μM biotinylated peptide, purified yeast APC/C, 1 h at 4 °C, streptavidin/Avidin beads, n = 3
Protocol: For APC/C purification, the APC/C which contain Cdc16-TAP-tag was isolated from 2 mL arrested yeast lysate by 120 μL IgG sepharose 6 Fast Flow beads (GE Healthcare Life Sciences) and incubate for 2 h at 4 °C on a rotating wheel. Beads were collected washed with 5 mL of APC/C wash buffer (200 mM Hepes pH8.0, 150 mM NaCl, 10% glycerol). Beads were resuspended in 150 μL of APC/C wash buffer contain 17.6 units of AcTEV protease (Invitrogen, Carlsbad, CA) at 4°C for 3 h with pipetting every 20 minutes. The purified APC/C was collected in the flow-through.
For APC/C binding assays, 20 μM biotinylated peptides or 20 μM peptides only as a negative control were incubated with purified APC/C and 100 μL APC/C wash buffer which contains phosphatase inhibitors (200 mM Hepes pH 8.0, 150 mM NaCl, 10% glycerol, 10 mM NaF, 1 mM NaVO4, 5 mM Na-pyrophosphate, 10 mM 2-glycerol phosphate) for 1 h at 4 °C. The mixtures were applied to 120 μL streptavidin beads (Dynabeads MyOne Streptavidin T1, Invitrogen) for 30 min at 4 °C with gentle pipetting every 10 min. Beads were washed with 1 mL of PBST buffer (Phosphate buffer saline and 0.1% Tween 20) three times SDS-PAGE protein sample was added directly. For APC/C binding competition experiments, the biotinylated peptide and 10-fold excess non-biotinylated peptides were added to purified APC/C at same time.
Free D-biotin in 10% DMSO was used for the control binding assays. For pre-coating APC/C with biotin, a modified APC/C purification was performed. 2 mL yeast lysate was incubated with 120 μL IgG Sepharose beads and additional 20.4 μM free biotin or non-biotin solvent as a positive control was added and samples were incubated for 2 h at 4 °C on a rotating wheel. Purified pre-coated APC/C was then removed from the IgG Sepharose following the standard purification procedure. 20 μM biotinylated peptides or 20 μM peptides as a negative control were incubated with pre-coated APC/C and 100 μL APC/C wash buffer which contain phosphatase inhibitors for 1 h at 4 °C. In addition, 20 μM biotinylated peptide was added and incubated with pre-coated APC/C in a non-biotin containing solvent as positive control. Pre-coated APC/C binding procedures were same as above. For pre-coating streptavidin beads with biotin, streptavidin beads were washed in the presence of 10.2 nmol/mL D-biotin in PBST buffer or non-biotin solvent as a positive control before use. Pre-coated streptavidin beads were incubated with purified APC/C-peptide complexes with an extra […] biotin for 30 minutes with gentle pipetting every 10 min at 4 °C.
Proteins were separated in SDS-PAGE gels and then were transferred to PVDF membrane. Blocking was performed by incubating samples in 20 mL PBST with 5% milk at 4 °C. Rabbit anti-tap (Thermo, CAB1001) was used as primary antibodies at a 1:1000 dilution and incubated for 2 hours at RT. Anti-rabbit HRP (Jackson, USA) was then used as secondary antibody at 1:5000 dilution and incubate for 1 hr at RT. Chemiluminescence signals were detected using an ImageQuant LAS 4000 (GE Healthcare Bio-Sciences, USA). For cell cycle timing Western blots anti-MYC and anti-Actin antibodies were employed (ABCAM, UK).

APC/C^Cdc20 = molecular target: T1, APC/C^Cdc20 (Saccharomyces cerevisiae, UniProt P16522+P53886); experiment: biochemical; type: biochemical; details: for inhibition of APC/C^Cdc20 activity (in words): 220 μM peptide, 35S-Pds1 substrate, time course 0-60 minutes, vs buffer only, n = 3
T1 construct: constructed within full-length Cdc20 by site-directed mutagenesis for analysis in vitro in the APC/C^Cdc20 assay; The APC/C was purified for enzyme assays from 1 mL of TAP-tagged Cdc16 yeast extract (SCSY51); made in house; host or cells: Cdc20: in vitro transcription/translation in rabbit reticulocyte lysate, used unpurified; APC/C: S. cerevisiae strain SCSY51 (Cdc16-TAP) extract, captured on IgG magnetic beads
Protocol: Full-length, radio-labeled protein purifications were preformed as previously described. ^35S-Pds1 was prepared in a 500 μL IVT/T (In Vitro Transcription/Translation) reaction (Promega, USA), which contained 400 μL rabbit reticulocyte lysate, 20 μL of L-^35S-methionine (PerkinElmer, USA), 10 μg of plasmid DNA, and the remaining volume as nuclease-free ddH2O as recommended by the manufacturer. The reaction mixture was incubated for 2 hours at room temperature and gently mixed every 30 minutes. The reaction was added to pre-equilibrated IgG Sepharose beads (GE Healthcare, USA) in Bio-spin disposable chromatography columns (Bio-Rad, USA) for binding for 2 hours at room temperature. To ensure efficient binding, the beads were re-suspended several times every 30 minutes. After binding, the beads were washed with 5 mL wash buffer, containing 200 mM 4-(2-hydroxyethyl)-1-piperazineethanesulfonic acid (HEPES) at pH 8.0, 150 mM NaCl, 10% (v/v) glycerol, and 1 mM dithiothreitol (DTT). The ^35S-Pds1 was cleaved from the beads using TEV (Tobacco Etch Virus) protease in 1x TEV buffer (Invitrogen, USA) for 2 hours at room temperature, and the mixture was re-suspended several times every 30 minutes to promote efficient cleavage. The elution was collected and concentrated by employing an Amicon Ultra filter column (Millipore, Ireland). The concentrated ^35S-Pds1 was collected in a new tube, and stored at -20 °C.
The production of Cdc20 or Cdh1 was prepared by IVT/T reactions, where 16 μL of rabbit reticulocyte lysate, 20 μM L-methionine, 0.4 μg of plasmid DNA, and a volume of nuclease-free ddH2O for a total volume of 20 μL. This freshly synthesized Cdc20 or Cdh1 protein was used directly in all APC/C assays after a 1-hour synthesis reaction at room temperature. The APC/C was purified for enzyme assays from 1 mL of TAP-tagged Cdc16 yeast extract (SCSY51) where extract was mixed with 50 μL 50:50 slurry magnetic beads (Invitrogen, Norway) for 2 hours at 4 °C. After incubation, the beads were washed with 3 mL APC/C wash buffer (200 mM of HEPES, 150 mM of NaCl and 10% (v/v) of glycerol). APC/C bound to IgG magnetic beads was used directly in the enzyme assays.
APC/C assays were performed by adding the reaction contents in following order: 4.3 μL of QAH buffer, 20 μL of rabbit reticulocyte lysate containing Cdc20 or Cdh1 with or without an additional volume of recombinant checkpoint protein(s) or inhibitor peptides, 2.4 μL ubiquitin aldehyde (Boston Biochem, USA), APC/C, 16 μL pre-charged E1/E2/ATP/ubiquitin mix, and 13.3 μL of ^35S-Pds1 with QAH buffer (20 mM HEPES at pH 8.0, 100 mM NaCl, and 1 mM MgCl2). The E1/E2/ATP/ubiquitin mix were pre-charged by mixing 1 μL of E1 (Boston Biochem, USA), 1 μL of E2 (Boston Biochem, USA), 14.4 μL of ATP, 14.4 μL of […] (Boston Biochem, USA), and 17.2 μL of QAH buffer and incubated for 15 minutes at room temperature. Approximately 15 μL of samples were taken out at each time point, and the reaction was stopped by the addition of 2x protein sample buffer (125 mM Tris-HCl pH 6.8, 4% SDS, 20% glycerol, and 0.002% bromophenol blue, with 10% (final v/v) 2-mercaptoethanol added in fresh directly before use).
For inhibitor titration and time-course experiments, recombinant Bub3, Mad2, Mad3, and the Mad3-Bub3 complex were expressed and purified as previously described. […] For inhibition of APC/C the co-factor Cdc20 or Cdh1 was made fresh by IVT/T, and pure recombinant checkpoint proteins or inhibitor peptides were added to the IVT/T mixture and incubated for an additional hour at room temperature. In titrations, a dilution series of the checkpoint protein(s) were made before incubation with the Cdc20 co-factor. SDS-PAGE was performed using stand protocols (BioRad, USA).

Molecule	binding to APC/C (in words) (APC/C)	inhibition of APC/C^Cdc20 activity (in words) (APC/C^Cdc20)	IC50 (APC/C^Cdc20; Mad3-Bub3 complex in the presence of 0.5 μM Mad2, ± sd, three independent titrations, read-out: IC50)
biotinylated-DQ36: DQ36 containing an N-terminal biotin (Biotin-DMNKRILQYMPEPPKCSSLRQKSYIMKKRTHYSYQQ)	able to pull-down purified APC/C	–	–
SQ19: C-terminal 19 amino acids, SQ19 (Cdc20 213–232) peptide (SSLRQKSYIMKKRTHYSYQQ; UniProt P26309 213-232, looked up, fragment)	displayed the ability to bind APC/C similar to the control peptide DQ36	displayed a low level of inhibitory activity	–
DK27: defined Mad2-binding motif peptide DK27 (Cdc20 197–223) (Biotin-DMNKRILQYMPEPPKCSSLRQKSYIMK)	retained the ability to bind with the APC/C; also recorded: displayed the ability to bind APC/C similar to the control peptide DQ36	displayed a diminished ability to inhibit APC/C^Cdc20 although a significant difference with the buffer only control was still observed	–
PS46: N-terminal 46 amino acid peptide called PS46 (Cdc20 167–213) (LPPPNASPISHLRAQTKIVFKQNVAEACGLDMNKRILQYMPEPPKCS; UniProt P26309 167-213, looked up, fragment)	able to bind to the APC/C directly, although consistently weaker binding was observed relative to DQ36; also recorded: consistently observed to have weaker APC/C binding activity relative to wild type DQ36	observed to inhibit APC/C^Cdc20	–
biotinylated-PQ65: PQ65 containing an N-terminal biotin (peptide, UniProt P26309 169-232, looked up, fragment) Biotin-PPNASPISHLRAQTKIVFKQNVAEACGLDMNKRILQYMPEPPKCSSLRQKSYIMKKRTHYSYQQ	able to pull-down purified APC/C	–	–
Mad3-Bub3 complex + 0.5 μM Mad2: Mad3-Bub3 complex in the presence of 0.5 μM Mad2 (protein, Mad2 added separately at 0.5 uM) chain 1: MKAYAKKRISYMPSSPSQNVINFEEIETQKENILPLKEGRSAAALSKAIHQPLVEINQVKSSFEQRLIDELPALSDPITLYLEYIKWLNNAYPQGGNSKQSGMLTLLERCLSHLKDLERYRNDVRFLKIWFWYIELFTRNSFMESRDIFMYMLRNGIGSELASFYEEFTNLLIQKEKFQYAVKILQLGIKNKARPNKVLEDRLNHLLRELGENNIQLGNEISMDSLESTVLGKTRSEFVNRLELANQNGTSSDVNLTKNNVFVDGEESDVELFETPNRGVYRDGWENFDLKAERNKENNLRISLLEANTNLGELKQHEMLSQKKRPYDEKLPIFRDSIGRSDPVYQMINTKDQKPEKIDCNFKLIYCEDEESKGGRLEFSLEEVLAISRNVYKRVRTNRKHPREANLGQEESANQKEAEAQSKRPKISRKALVSKSLTPSNQGRMFSGEEYINCPMTPKGRSTETSDIISAVKPRQLTPILEMRESNSFSQSKNSEIISDDDKSSSSFISYPPQR chain 2: MQIVQIEQAPKDYISDIKIIPSKSLLLITSWDGSLTVYKFDIQAKNVDLLQSLRYKHPLLCCNFIDNTDLQIYVGTVQGEILKVDLIGSPSFQALTNNEANLGICRICKYGDDKLIAASWDGLIEVIDPRNYGDGVIAVKNLNSNNTKVKNKIFTMDTNSSRLIVGMNNSQVQWFRLPLCEDDNGTIEESGLKYQIRDVALLPKEQEGYACSSIDGRVAVEFFDDQGDDYNSSKRFAFRCHRLNLKDTNLAYPVNSIEFSPRHKFLYTAGSDGIISCWNLQTRKKIKNFAKFNEDSVVKIACSDNILCLATSDDTFKTNAAIDQTIELNASSIYIIFDYEN chain 3: MSQSISLKGSTRTVTEFFEYSINSILYQRGVYPAEDFVTVKKYDLTLLKTHDDELKDYIRKILLQVHRWLLGGKCNQLVLCIVDKDEGEVVERWSFNVQHISGNSNGQDDVVDLNTTQSQIRALIRQITSSVTFLPELTKEGGYTFTVLAYTDADAKVPLEWADSNSKEIPDGEVVQFKTFSTNDHKVGAQVSYKY	–	–	70 ± 3 nM
